# Reference: PMC8408140 (2021)
# B1: TFEB-EGFP [not stated] / Flag-TNKS1 [not stated] (parent complex)
# chain 1: MASRIGLRMQLMREQAQQEEQRERMQQQAVMHYMQQQQQQQQQQLGGPPTPAINTPVHFQSPPPVPGEVLKVQSYLENPTSYHLQQSQHQKVREYLSETYGNKFAAHISPAQGSPKPPPAASPGVRAGHVLSSSAGNSAPNSPMAMLHIGSNPERELDDVIDNIMRLDDVLGYINPEMQMPNTLPLSSSHLNVYSSDPQVTASLVGVTSSSCPADLTQKRELTDAESRALAKERQKKDNHNLIERRRRFNINDRIKELGMLIPKANDLDVRWNKGTILKASVDYIRRMQKDLQKSRELENHSRRLEMTNKQLWLRIQELEMQARVHGLPTTSPSGMNMAELAQQVVKQELPSEEGPGEALMLGAEVPDPEPLPALPPQAPLPLPTQPPSPFHHLDFSHSLSFGGREDEGPPGYPEPLAPGHGSPFPSLSKKDLDLMLLDDSLLPLASDPLLSTMSPEASKASSRRSSFSMEEGDVL
# chain 2: MAASRRSQHHHHHHQQQLQPAPGASAPPPPPPPPLSPGLAPGTTPASPTASGLAPFASPRHGLALPEGDGSRDPPDRPRSPDPVDGTSCCSTTSTICTVAAAPVVPAVSTSSAAGVAPNPAGSGSNNSPSSSSSPTSSSSSSPSSPGSSLAESPEAAGVSSTAPLGPGAAGPGTGVPAVSGALRELLEACRNGDVSRVKRLVDAANVNAKDMAGRKSSPLHFAAGFGRKDVVEHLLQMGANVHARDDGGLIPLHNACSFGHAEVVSLLLCQGADPNARDNWNYTPLHEAAIKGKIDVCIVLLQHGADPNIRNTDGKSALDLADPSAKAVLTGEYKKDELLEAARSGNEEKLMALLTPLNVNCHASDGRKSTPLHLAAGYNRVRIVQLLLQHGADVHAKDKGGLVPLHNACSYGHYEVTELLLKHGACVNAMDLWQFTPLHEAASKNRVEVCSLLLSHGADPTLVNCHGKSAVDMAPTPELRERLTYEFKGHSLLQAAREADLAKVKKTLALEIINFKQPQSHETALHCAVASLHPKRKQVTELLLRKGANVNEKNKDFMTPLHVAAERAHNDVMEVLHKHGAKMNALDTLGQTALHRAALAGHLQTCRLLLSYGSDPSIISLQGFTAAQMGNEAVQQILSESTPIRTSDVDYRLLEASKAGDLETVKQLCSSQNVNCRDLEGRHSTPLHFAAGYNRVSVVEYLLHHGADVHAKDKGGLVPLHNACSYGHYEVAELLVRHGASVNVADLWKFTPLHEAAAKGKYEICKLLLKHGADPTKKNRDGNTPLDLVKEGDTDIQDLLRGDAALLDAAKKGCLARVQKLCTPENINCRDTQGRNSTPLHLAAGYNNLEVAEYLLEHGADVNAQDKGGLIPLHNAASYGHVDIAALLIKYNTCVNATDKWAFTPLHEAAQKGRTQLCALLLAHGADPTMKNQEGQTPLDLATADDIRALLIDAMPPEALPTCFKPQATVVSASLISPASTPSCLSAASSIDNLTGPLAELAVGGASNAGDGAAGTERKEGEVAGLDMNISQFLKSLGLEHLRDIFETEQITLDVLADMGHEELKEIGINAYGHRHKLIKGVERLLGGQQGTNPYLTFHCVNQGTILLDLAPEDKEYQSVEEEMQSTIREHRDGGNAGGIFNRYNVIRIQKVVNKKLRERFCHRQKEVSEENHNHHNERMLFHGSPFINAIIHKGFDERHAYIGGMFGAGIYFAENSSKSNQYVYGIGGGTGCPTHKDRSCYICHRQMLFCRVTLGKSFLQFSTMKMAHAPPGHHSVIGRPSVNGLAYAEYVIYRGEQAYPEYLITYQIMKPEAPSQTATAAEQKT
# Variants of: B1
# Assay: co-immunoprecipitation (anti-GFP IP, immunoblot quantification); HEK293T cells; three independent immunoblots; parent: 1; read off a plot
row,ratio to parent,Variant
1,~0.4,"chain 1 MASRIGLRMQLMREQAQQEEQRERMQQQAVMHYMQQQQQQQQQQLGGPPTPAINTPVHFQSPPPDPVAVLKVQSYLENPTSYHLQQSQHQKVREYLSETYGNKFAAHISPAQGSPKPPPAASPGVRAGHVLSSSAGNSAPNSPMAMLHIGSNPERELDDVIDNIMRLDDVLGYINPEMQMPNTLPLSSSHLNVYSSDPQVTASLVGVTSSSCPADLTQKRELTDAESRALAKERQKKDNHNLIERRRRFNINDRIKELGMLIPKANDLDVRWNKGTILKASVDYIRRMQKDLQKSRELENHSRRLEMTNKQLWLRIQELEMQARVHGLPTTSPSGMNMAELAQQVVKQELPSEEGPGEALMLGAEVPDPEPLPALPPQAPLPLPTQPPSPFHHLDFSHSLSFGGREDEGPPGYPEPLAPGHGSPFPSLSKKDLDLMLLDDSLLPLASDPLLSTMSPEASKASSRRSSFSMEEGDVL [chain 1 V65D, chain 1 G67V, chain 1 E68A]"
